According to IntAct's records for PubMed 21785459:

B1: Parkinson disease protein 7 (Homo sapiens), Q99497 (parent)
chain: MASKRALVILAKGAEEMETVIPVDVMRRAGIKVTVAGLAGKDPVQCSRDVVICPDASLEDAKKEGPYDVVVLPGGNLGAQNLSESAAVKEILKEQENRKGLIAAICAGPTALLAHEIGFGSKVTTHPLAKDKMMNGGHYTYSENRVEKDGLILTSRGPGTSFEFALAIVEALNGKEVAAQVKAPLVLKD

Variants of: B1
Conditions: with fadd_human FADD

effect of a mutation on the interaction	Variant
disrupting interaction	MASKRALVILAKGAEEMETVIPVDVMRRAGIKVTVAGLAGKDPVQCSRDVVICPDASLEDAKKEGPYDVVVLPGGNLGAQNLSESAAVKEILKEQENRKGLIAAICAGPTALLAHEIGFGSKVTTHPLAKDKMMNGGHYTYSENRVEKDGLILTSRGPGTSFEFAPAIVEALNGKEVAAQVKAPLVLKD [L166P]

Variants of: B1
Conditions: with fadd_human FADD
Remark: another data set of the same source

effect of a mutation on the interaction	Variant
decreasing interaction	MASKRALVILAKGAEEMETVIPVDVMRRAGIKVTVAGLAGKDPVQCSRDVVICPDASLEDAKKEGPYDVVVLPGGNLGAQNLSESAAVKEILKEQENRKGLIAAICAGPTALLAHEIGFGSKVTTHPLAKDKMMNGGHYTYSENRVEKDGLILTSRGPGTSFEFAAAIVEALNGKEVAAQVKAPLVLKD [L166A]
